Test results from article PMC11721465 (Molecular Neurodegeneration, 2025).

Columns and labels:
Conditions in all cases: both partners purified
[1] = molecular target: T1, oligomeric amyloid beta 42 (UniProt P05067 672-713); assay: not stated; KD of oAβ42 and TREM2 referred to Supplemental Fig. 9; method not given
T1 construct: amyloid beta 42 (Aβ42), cut product of the amyloid precursor protein; oligomers of unstated size; also called oAβ42; Aβ42 oligomers; source: bought: Anaspec; oligomers made from HFIP/DMSO-treated peptide in PBS, 37 °C, 3 h

[2] = molecular target: T2, TDP-43, full length, soluble oligomers (human, UniProt Q13148 1-414); assay: BLI; biotinylated TREM2 WT or variant immobilised on SA biosensors; TDP-43 oligomers 0.625–10 µM; PBS with 0.1% BSA and 0.005% Tween-20; biphasic curves, only qualitatively evaluated
T2 construct: TDP-43, human, full length; oligomers of unstated size; also called oligomeric TDP-43; TDP-43 oligomers; source: E coli, purified from insoluble inclusion bodies, solubilized in 6 M guanidine, oligomers made by 1:100 dilution

Human IL-34 (19–241) = molecular target: T3, Human IL-34 (19–241) (human, UniProt Q6ZMJ4 19-241); assay: BLI; biotinylated TREM2 WT or variant immobilised on SA biosensors; IL-34 62.5–1000 nM; PBS with 0.1% BSA and 0.005% Tween-20; 1:1 kinetic fits
T3 construct: IL-34, human, residues 19-241; source: Expi293F cells, secreted, purified from the media using NiNTA chromatography
T3 sequence (looked up): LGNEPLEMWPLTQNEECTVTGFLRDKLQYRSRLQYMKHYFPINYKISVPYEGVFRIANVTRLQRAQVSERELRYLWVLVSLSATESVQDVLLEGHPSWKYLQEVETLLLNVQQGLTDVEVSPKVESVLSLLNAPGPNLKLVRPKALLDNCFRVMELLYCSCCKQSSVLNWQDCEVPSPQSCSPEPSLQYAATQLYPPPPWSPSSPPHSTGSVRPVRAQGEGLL

apolipoprotein E3 = molecular target: T4, apolipoprotein E3 (UniProt P02649 19-317); assay: BLI; biotinylated TREM2 WT or variant immobilised on streptavidin (SA) biosensors; apoE in solution (apoE4 0.012–50 µM); PBS with 0.1% BSA and 0.005% Tween-20; double-reference subtraction; steady-state analysis
T4 construct: also called apoE3
T4 sequence (P02649 19-317): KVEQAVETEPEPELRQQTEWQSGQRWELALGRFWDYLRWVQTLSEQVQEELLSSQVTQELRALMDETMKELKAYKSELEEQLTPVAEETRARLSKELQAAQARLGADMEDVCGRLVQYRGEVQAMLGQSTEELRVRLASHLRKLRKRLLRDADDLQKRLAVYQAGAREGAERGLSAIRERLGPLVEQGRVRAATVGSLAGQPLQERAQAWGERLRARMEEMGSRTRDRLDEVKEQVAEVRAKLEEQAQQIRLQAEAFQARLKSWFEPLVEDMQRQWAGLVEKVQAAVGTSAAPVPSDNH

T2 sequence (Q13148 whole entry): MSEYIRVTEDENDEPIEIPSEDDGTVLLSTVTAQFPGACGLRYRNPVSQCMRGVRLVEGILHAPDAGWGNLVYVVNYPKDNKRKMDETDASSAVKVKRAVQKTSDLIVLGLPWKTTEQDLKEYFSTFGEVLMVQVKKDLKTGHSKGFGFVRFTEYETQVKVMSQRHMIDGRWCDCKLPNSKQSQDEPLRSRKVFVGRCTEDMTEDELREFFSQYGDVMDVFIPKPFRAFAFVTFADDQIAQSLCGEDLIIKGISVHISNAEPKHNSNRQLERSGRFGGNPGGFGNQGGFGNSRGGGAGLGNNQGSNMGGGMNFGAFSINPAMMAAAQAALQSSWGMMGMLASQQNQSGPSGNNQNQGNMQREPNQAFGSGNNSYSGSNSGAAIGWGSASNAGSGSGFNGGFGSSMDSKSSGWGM

| Binder | Kd [1] | binding result [2] | Kd (Human IL-34 (19–241)) | Kd (apolipoprotein E3) |
| --- | --- | --- | --- | --- |
| TREM2 (19–134) R62H, biotinylated (domain or fragment, human, UniProt Q9NZC2 19-134, looked up, biotin on the C-terminal BirA biotinylation sequence (enzymatic, BirA), AD risk variant that occurs in nature; source: Expi293F cells, purified, enzymatically biotinylated using BirA) HNTTVFQGVAGQSLQVSCPYDSMKHWGRRKAWCRQLGEKGPCQHVVSTHNLWLLSFLRRWNGSTAITDDTLGGTLTITLRNLQPHDAGLYQCQSLHGSEADTLRKVLVEVLADPLD | – | binds | 0.075 µM | – |
| TREM2 (19–134) R77D, biotinylated (domain or fragment, human, UniProt Q9NZC2 19-134, looked up, biotin on the C-terminal BirA biotinylation sequence (enzymatic, BirA), source: Expi293F cells, purified, enzymatically biotinylated using BirA) HNTTVFQGVAGQSLQVSCPYDSMKHWGRRKAWCRQLGEKGPCQRVVSTHNLWLLSFLRDWNGSTAITDDTLGGTLTITLRNLQPHDAGLYQCQSLHGSEADTLRKVLVEVLADPLD | – | – | 0.114 ± 0.004 µM | – |
| TREM2 (19–134) W44D/L69D/L71D, biotinylated (domain or fragment, human, UniProt Q9NZC2 19-134, looked up, biotin on the C-terminal BirA biotinylation sequence (enzymatic, BirA), source: Expi293F cells, purified, enzymatically biotinylated using BirA) HNTTVFQGVAGQSLQVSCPYDSMKHDGRRKAWCRQLGEKGPCQRVVSTHNDWDLSFLRRWNGSTAITDDTLGGTLTITLRNLQPHDAGLYQCQSLHGSEADTLRKVLVEVLADPLD | – | – | 0.0258 ± 0.0003 µM | – |
| TREM2 (19–134) D87N, biotinylated (domain or fragment, human, UniProt Q9NZC2 19-134, looked up, biotin on the C-terminal BirA biotinylation sequence (enzymatic, BirA), AD risk variant that occurs in nature; source: Expi293F cells, purified, enzymatically biotinylated using BirA) HNTTVFQGVAGQSLQVSCPYDSMKHWGRRKAWCRQLGEKGPCQRVVSTHNLWLLSFLRRWNGSTAITDNTLGGTLTITLRNLQPHDAGLYQCQSLHGSEADTLRKVLVEVLADPLD | – | binds | 0.0284 ± 0.0005 µM | 0.079 µM |
| TREM2 (19–134) R122E, biotinylated (domain or fragment, human, UniProt Q9NZC2 19-134, looked up, biotin on the C-terminal BirA biotinylation sequence (enzymatic, BirA), source: Expi293F cells, purified, enzymatically biotinylated using BirA) HNTTVFQGVAGQSLQVSCPYDSMKHWGRRKAWCRQLGEKGPCQRVVSTHNLWLLSFLRRWNGSTAITDDTLGGTLTITLRNLQPHDAGLYQCQSLHGSEADTLEKVLVEVLADPLD | – | – | 0.0294 ± 0.0004 µM | – |
| TREM2 (19–134) L75D, biotinylated (domain or fragment, human, UniProt Q9NZC2 19-134, looked up, biotin on the C-terminal BirA biotinylation sequence (enzymatic, BirA), source: Expi293F cells, purified, enzymatically biotinylated using BirA) HNTTVFQGVAGQSLQVSCPYDSMKHWGRRKAWCRQLGEKGPCQRVVSTHNLWLLSFDRRWNGSTAITDDTLGGTLTITLRNLQPHDAGLYQCQSLHGSEADTLRKVLVEVLADPLD | – | – | 0.0366 ± 0.0009 µM | – |
| TREM2 (19–134) R47H, biotinylated (domain or fragment, human, UniProt Q9NZC2 19-134, looked up, biotin on the C-terminal BirA biotinylation sequence (enzymatic, BirA), AD risk variant that occurs in nature; source: Expi293F cells, purified, enzymatically biotinylated using BirA) HNTTVFQGVAGQSLQVSCPYDSMKHWGRHKAWCRQLGEKGPCQRVVSTHNLWLLSFLRRWNGSTAITDDTLGGTLTITLRNLQPHDAGLYQCQSLHGSEADTLRKVLVEVLADPLD | – | binds | 0.0798 ± 0.0024 µM | – |
| TREM2 (19–134) T96K, biotinylated (domain or fragment, human, UniProt Q9NZC2 19-134, looked up, biotin on the C-terminal BirA biotinylation sequence (enzymatic, BirA), AD risk variant that occurs in nature; source: Expi293F cells, purified, enzymatically biotinylated using BirA) HNTTVFQGVAGQSLQVSCPYDSMKHWGRRKAWCRQLGEKGPCQRVVSTHNLWLLSFLRRWNGSTAITDDTLGGTLTIKLRNLQPHDAGLYQCQSLHGSEADTLRKVLVEVLADPLD | – | – | 0.0237 ± 0.0004 µM | – |

These reach a lower Kd (Human IL-34 (19–241)). Values come first.

| Kd [1] | binding result [2] | Kd (Human IL-34 (19–241)) | Kd (apolipoprotein E3) | Binder |
| --- | --- | --- | --- | --- |
| – | – | 0.0215 ± 0.0006 µM | – | TREM2 (19–134) T85D, biotinylated (domain or fragment, human, UniProt Q9NZC2 19-134, looked up, biotin on the C-terminal BirA biotinylation sequence (enzymatic, BirA), source: Expi293F cells, purified, enzymatically biotinylated using BirA) HNTTVFQGVAGQSLQVSCPYDSMKHWGRRKAWCRQLGEKGPCQRVVSTHNLWLLSFLRRWNGSTAIDDDTLGGTLTITLRNLQPHDAGLYQCQSLHGSEADTLRKVLVEVLADPLD |
| – | – | 0.0202 ± 0.0003 µM | – | TREM2 (19–134) L69D/L71D, biotinylated (domain or fragment, human, UniProt Q9NZC2 19-134, looked up, biotin on the C-terminal BirA biotinylation sequence (enzymatic, BirA), source: Expi293F cells, purified, enzymatically biotinylated using BirA) HNTTVFQGVAGQSLQVSCPYDSMKHWGRRKAWCRQLGEKGPCQRVVSTHNDWDLSFLRRWNGSTAITDDTLGGTLTITLRNLQPHDAGLYQCQSLHGSEADTLRKVLVEVLADPLD |
| – | – | 0.0185 ± 0.0003 µM | – | TREM2 (19–134) R122D/K123D, biotinylated (domain or fragment, human, UniProt Q9NZC2 19-134, looked up, biotin on the C-terminal BirA biotinylation sequence (enzymatic, BirA), source: Expi293F cells, purified, enzymatically biotinylated using BirA) HNTTVFQGVAGQSLQVSCPYDSMKHWGRRKAWCRQLGEKGPCQRVVSTHNLWLLSFLRRWNGSTAITDDTLGGTLTITLRNLQPHDAGLYQCQSLHGSEADTLDDVLVEVLADPLD |
| – | – | 0.018 ± 0.0003 µM | – | TREM2 (19–134) R46D, biotinylated (domain or fragment, human, UniProt Q9NZC2 19-134, looked up, biotin on the C-terminal BirA biotinylation sequence (enzymatic, BirA), source: Expi293F cells, purified, enzymatically biotinylated using BirA) HNTTVFQGVAGQSLQVSCPYDSMKHWGDRKAWCRQLGEKGPCQRVVSTHNLWLLSFLRRWNGSTAITDDTLGGTLTITLRNLQPHDAGLYQCQSLHGSEADTLRKVLVEVLADPLD |
| – | – | 0.0172 ± 0.0004 µM | – | TREM2 (19–134) W78D, biotinylated (domain or fragment, human, UniProt Q9NZC2 19-134, looked up, biotin on the C-terminal BirA biotinylation sequence (enzymatic, BirA), source: Expi293F cells, purified, enzymatically biotinylated using BirA) HNTTVFQGVAGQSLQVSCPYDSMKHWGRRKAWCRQLGEKGPCQRVVSTHNLWLLSFLRRDNGSTAITDDTLGGTLTITLRNLQPHDAGLYQCQSLHGSEADTLRKVLVEVLADPLD |
| 0.042 µM | binds | 0.0165 ± 0.0002 µM | – | TREM2 (19–134) WT, biotinylated (domain or fragment, human, UniProt Q9NZC2 19-134, looked up, biotin on the C-terminal BirA biotinylation sequence (enzymatic, BirA), glycosylated (mammalian cells); also called TREM2 WT; source: Expi293F cells, purified, enzymatically biotinylated using BirA) HNTTVFQGVAGQSLQVSCPYDSMKHWGRRKAWCRQLGEKGPCQRVVSTHNLWLLSFLRRWNGSTAITDDTLGGTLTITLRNLQPHDAGLYQCQSLHGSEADTLRKVLVEVLADPLD |
